Test results published in patent US20260317443 (published 2026).

Molecular target: human VWF (human)
Assay: ELISA

Sequence of human VWF (human) (P04275 whole entry): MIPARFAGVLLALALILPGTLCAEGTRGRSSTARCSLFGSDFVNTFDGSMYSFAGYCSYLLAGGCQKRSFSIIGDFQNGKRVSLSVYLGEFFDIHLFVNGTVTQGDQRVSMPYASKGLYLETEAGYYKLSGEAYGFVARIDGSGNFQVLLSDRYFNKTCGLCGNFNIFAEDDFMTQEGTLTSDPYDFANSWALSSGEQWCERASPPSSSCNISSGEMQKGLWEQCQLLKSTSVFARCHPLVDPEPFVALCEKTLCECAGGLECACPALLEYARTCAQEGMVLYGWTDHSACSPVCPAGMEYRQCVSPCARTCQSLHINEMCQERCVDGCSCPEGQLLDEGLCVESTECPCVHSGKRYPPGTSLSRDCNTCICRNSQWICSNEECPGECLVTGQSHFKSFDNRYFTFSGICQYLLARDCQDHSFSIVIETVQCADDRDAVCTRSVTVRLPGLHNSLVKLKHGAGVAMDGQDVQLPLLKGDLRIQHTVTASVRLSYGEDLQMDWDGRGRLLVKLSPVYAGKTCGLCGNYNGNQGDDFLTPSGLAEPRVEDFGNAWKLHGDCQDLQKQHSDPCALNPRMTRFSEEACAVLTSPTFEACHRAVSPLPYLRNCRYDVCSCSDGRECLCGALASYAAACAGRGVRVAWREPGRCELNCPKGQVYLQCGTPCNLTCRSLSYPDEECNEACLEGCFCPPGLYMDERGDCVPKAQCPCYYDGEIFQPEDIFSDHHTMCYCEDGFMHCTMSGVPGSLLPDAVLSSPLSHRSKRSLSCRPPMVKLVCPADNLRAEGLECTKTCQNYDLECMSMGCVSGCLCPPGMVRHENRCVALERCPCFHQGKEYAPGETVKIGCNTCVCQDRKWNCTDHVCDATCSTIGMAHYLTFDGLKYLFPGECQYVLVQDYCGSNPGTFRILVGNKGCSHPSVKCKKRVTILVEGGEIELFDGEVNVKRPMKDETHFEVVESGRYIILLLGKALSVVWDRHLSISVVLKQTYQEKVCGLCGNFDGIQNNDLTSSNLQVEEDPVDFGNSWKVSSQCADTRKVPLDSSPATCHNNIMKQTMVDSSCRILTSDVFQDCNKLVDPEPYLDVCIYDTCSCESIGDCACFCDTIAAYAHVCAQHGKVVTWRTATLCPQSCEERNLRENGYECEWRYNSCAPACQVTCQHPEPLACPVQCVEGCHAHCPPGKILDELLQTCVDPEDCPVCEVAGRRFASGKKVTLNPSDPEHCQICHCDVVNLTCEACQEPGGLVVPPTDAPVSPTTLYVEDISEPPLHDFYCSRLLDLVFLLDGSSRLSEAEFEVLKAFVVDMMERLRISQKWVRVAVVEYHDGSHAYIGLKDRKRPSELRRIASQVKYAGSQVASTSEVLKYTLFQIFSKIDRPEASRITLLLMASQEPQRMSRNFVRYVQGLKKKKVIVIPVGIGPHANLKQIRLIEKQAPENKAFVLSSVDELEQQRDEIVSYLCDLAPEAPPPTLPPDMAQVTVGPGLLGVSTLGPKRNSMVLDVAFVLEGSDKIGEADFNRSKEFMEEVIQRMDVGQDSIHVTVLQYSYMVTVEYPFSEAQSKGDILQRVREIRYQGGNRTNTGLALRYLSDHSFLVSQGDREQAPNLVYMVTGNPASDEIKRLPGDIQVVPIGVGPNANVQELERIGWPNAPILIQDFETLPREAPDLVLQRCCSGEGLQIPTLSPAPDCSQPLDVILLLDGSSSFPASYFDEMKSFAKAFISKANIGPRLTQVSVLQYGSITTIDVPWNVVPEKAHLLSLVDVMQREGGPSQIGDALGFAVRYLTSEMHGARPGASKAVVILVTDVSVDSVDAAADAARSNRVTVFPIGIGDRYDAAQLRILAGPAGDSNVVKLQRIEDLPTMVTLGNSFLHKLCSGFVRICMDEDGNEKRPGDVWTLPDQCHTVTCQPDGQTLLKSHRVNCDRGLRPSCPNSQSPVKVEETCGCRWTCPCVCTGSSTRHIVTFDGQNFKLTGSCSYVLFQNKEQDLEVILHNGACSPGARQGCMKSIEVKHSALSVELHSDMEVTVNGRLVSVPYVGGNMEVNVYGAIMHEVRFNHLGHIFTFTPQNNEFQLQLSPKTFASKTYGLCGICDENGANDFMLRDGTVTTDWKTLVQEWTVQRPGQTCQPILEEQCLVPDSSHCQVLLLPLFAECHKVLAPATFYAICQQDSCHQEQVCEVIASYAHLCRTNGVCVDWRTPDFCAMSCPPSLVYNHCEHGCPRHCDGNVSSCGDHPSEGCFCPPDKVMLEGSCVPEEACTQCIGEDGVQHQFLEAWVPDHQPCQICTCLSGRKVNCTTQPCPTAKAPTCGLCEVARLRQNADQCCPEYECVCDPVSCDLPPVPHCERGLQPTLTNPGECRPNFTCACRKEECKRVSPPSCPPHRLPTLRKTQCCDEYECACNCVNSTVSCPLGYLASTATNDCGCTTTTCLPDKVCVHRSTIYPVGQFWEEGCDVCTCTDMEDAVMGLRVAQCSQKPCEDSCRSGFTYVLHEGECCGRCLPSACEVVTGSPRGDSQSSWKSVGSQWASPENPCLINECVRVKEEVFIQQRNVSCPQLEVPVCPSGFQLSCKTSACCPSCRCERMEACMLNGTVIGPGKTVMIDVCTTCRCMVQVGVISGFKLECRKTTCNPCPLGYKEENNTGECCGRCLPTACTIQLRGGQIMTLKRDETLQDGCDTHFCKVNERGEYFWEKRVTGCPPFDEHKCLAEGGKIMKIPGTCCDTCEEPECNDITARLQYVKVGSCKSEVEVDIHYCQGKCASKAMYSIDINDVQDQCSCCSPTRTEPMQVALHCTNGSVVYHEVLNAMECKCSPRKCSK

| Binder | EC50 [mg/L] |
| --- | --- |
| 33D03_H3-L3 (antibody, V domains shown) VH: QVQLVQSGAEVKKPGASVKVSCKASGYTFTDYYLNWVRQAPGQRLEWMGIINPYNGGTNYSQKFQGRVTITVDKSSSTAYMELSSLRSEDTAVYYCASEGLRTWFTYWGQGTLVTVSS VL: DIVMTQSPDSLAVSLGERATINCKSSQSLSNSGNQKIYLAWYQQKPGQPPKLLIYGASSRESGVPDRFSGSGSEIDFTLTISSLQAEDVAVYYCQNDHSHPFTFGQGTKLEIK | 0.0483 |
| 33D03_H4-L2 (antibody, V domains shown) VH: QVQLVQSGAEVKKPGASVKVSCKASGYTFTDYYLNWVRQAPGQRLEWMGIINPYNGGTNYNQRFKGRVTITVDKSSSTAYMELSSLRSEDTAVYYCASEGLRTWFTYWGQGTLVTVSS VL: DIVMTQSPDSLAVSLGERATISCKSSQSLSNSGNQKIYLAWYQQKPGQPPKLLIYGASSRESGVPDRFSGSGSGTDFTLTISSLQAEDVAVYYCQNDHSHPFTFGQGTKLEIK | 0.0354 |
| 33D03_H4-L3 (antibody, V domains shown) VH: QVQLVQSGAEVKKPGASVKVSCKASGYTFTDYYLNWVRQAPGQRLEWMGIINPYNGGTNYNQRFKGRVTITVDKSSSTAYMELSSLRSEDTAVYYCASEGLRTWFTYWGQGTLVTVSS VL: DIVMTQSPDSLAVSLGERATINCKSSQSLSNSGNQKIYLAWYQQKPGQPPKLLIYGASSRESGVPDRFSGSGSEIDFTLTISSLQAEDVAVYYCQNDHSHPFTFGQGTKLEIK | 0.0371 |
| 33D03_H2-L1 (antibody, V domains shown) VH: QVQLVQSGAEVKKPGASVKVSCKASGYTFTDYYLNWVRQAPGQRLEWMGIINPYNGGTNYNQRFKGRVTITRDTSASTAYMELSSLRSEDTAVYYCASEGLRTWFTYWGQGTLVTVSS VL: DIVMTQSPDSLAVSLGERATINCKSSQSLSNSGNQKIYLAWYQQKPGQPPKLLIYGASSRESGVPDRFSGSGSGTDFTLTISSLQAEDVAVYYCQNDHSHPFTFGQGTKLEIK | 0.0373 |
| 25B05_H4-L2 (antibody, V domains shown) VH: EVQLVQSGAEVKKPGASVKVSCKASGYTFTDYFMNWVRQAPGQRLEWMGVINPHNGGTSYSQKFQGRVTLTVDKSSSTAYMELSSLRSEDTAVYYCARRPLGSDYWGQGTTVTVSS VL: DIVMTQSPSSVSASVGDRVTITCKASQNVGTAVAWYQQKPGKAPKLLIYSASSRYTGVPSRFSGSGSGTDFTLTISSLQPEDFATYYCQQYSSYPLTFGQGTKLEIK | 0.0357 |
| 33D03_H4-L4 (antibody, V domains shown) VH: QVQLVQSGAEVKKPGASVKVSCKASGYTFTDYYLNWVRQAPGQRLEWMGIINPYNGGTNYNQRFKGRVTITVDKSSSTAYMELSSLRSEDTAVYYCASEGLRTWFTYWGQGTLVTVSS VL: DIVMTQSPDSLAVSLGERATISCKSSQSLSNSGNQKIYLAWYQQKPGQPPKLLIYGASSRESGVPDRFSGSGSEIDFTLTISSLQAEDVAVYYCQNDHSHPFTFGQGTKLEIK | 0.0365 |
| 33D03_H2-L2 (antibody, V domains shown) VH: QVQLVQSGAEVKKPGASVKVSCKASGYTFTDYYLNWVRQAPGQRLEWMGIINPYNGGTNYNQRFKGRVTITRDTSASTAYMELSSLRSEDTAVYYCASEGLRTWFTYWGQGTLVTVSS VL: DIVMTQSPDSLAVSLGERATISCKSSQSLSNSGNQKIYLAWYQQKPGQPPKLLIYGASSRESGVPDRFSGSGSGTDFTLTISSLQAEDVAVYYCQNDHSHPFTFGQGTKLEIK | 0.0394 |
| 33D03_H1-L3 (antibody, V domains shown) VH: QVQLVQSGAEVKKPGASVKVSCKASGYTFTDYYLNWVRQAPGQRLEWMGIINPYNGGTNYSQKFQGRVTITRDTSASTAYMELSSLRSEDTAVYYCASEGLRTWFTYWGQGTLVTVSS VL: DIVMTQSPDSLAVSLGERATINCKSSQSLSNSGNQKIYLAWYQQKPGQPPKLLIYGASSRESGVPDRFSGSGSEIDFTLTISSLQAEDVAVYYCQNDHSHPFTFGQGTKLEIK | 0.0597 |
| 25B05_H4-L3 (antibody, V domains shown) VH: EVQLVQSGAEVKKPGASVKVSCKASGYTFTDYFMNWVRQAPGQRLEWMGVINPHNGGTSYSQKFQGRVTLTVDKSSSTAYMELSSLRSEDTAVYYCARRPLGSDYWGQGTTVTVSS VL: DIQMTQSPSSVSASVGDRVTITCKASQNVGTAVAWYQQKPGKAPKLLIYSASSRYTEVPDRFSGSGSGTDFTLTISSLQPEDFATYYCQQYSSYPLTFGQGTKLEIK | 0.0271 |
| 33D03_H2-L3 (antibody, V domains shown) VH: QVQLVQSGAEVKKPGASVKVSCKASGYTFTDYYLNWVRQAPGQRLEWMGIINPYNGGTNYNQRFKGRVTITRDTSASTAYMELSSLRSEDTAVYYCASEGLRTWFTYWGQGTLVTVSS VL: DIVMTQSPDSLAVSLGERATINCKSSQSLSNSGNQKIYLAWYQQKPGQPPKLLIYGASSRESGVPDRFSGSGSEIDFTLTISSLQAEDVAVYYCQNDHSHPFTFGQGTKLEIK | 0.0371 |
| 33D03_H2-L4 (antibody, V domains shown) VH: QVQLVQSGAEVKKPGASVKVSCKASGYTFTDYYLNWVRQAPGQRLEWMGIINPYNGGTNYNQRFKGRVTITRDTSASTAYMELSSLRSEDTAVYYCASEGLRTWFTYWGQGTLVTVSS VL: DIVMTQSPDSLAVSLGERATISCKSSQSLSNSGNQKIYLAWYQQKPGQPPKLLIYGASSRESGVPDRFSGSGSEIDFTLTISSLQAEDVAVYYCQNDHSHPFTFGQGTKLEIK | 0.0381 |
| 25B05_H3-L4 (antibody, V domains shown) VH: EVQLVQSGAEVKKPGASVKVSCKASGYTFTDYFMNWVRQAPGQRLEWMGVINPHNGGTSYSQKFQGRVTITVDKSSSTAYMELSSLRSEDTAVYYCARRPLGSDYWGQGTTVTVSS VL: DIVMTQSPSSVSASVGDRVTITCKASQNVGTAVAWYQQKPGKAPKLLIYSASSRYTEVPDRFSGSGSGTDFTLTISSLQPEDFATYYCQQYSSYPLTFGQGTKLEIK | 0.0379 |
| 25B05_H2-L3 (antibody, V domains shown) VH: QVQLVQSGAEVKKPGASVKVSCKASGYTFTDYFMNWVRQAPGQRLEWMGVINPHNGGTSYSQKFQGRVTITVDKSSSTAYMELSSLRSEDTAVYYCARRPLGSDYWGQGTTVTVSS VL: DIQMTQSPSSVSASVGDRVTITCKASQNVGTAVAWYQQKPGKAPKLLIYSASSRYTEVPDRFSGSGSGTDFTLTISSLQPEDFATYYCQQYSSYPLTFGQGTKLEIK | 0.0416 |
| 25B05_H2-L2 (antibody, V domains shown) VH: QVQLVQSGAEVKKPGASVKVSCKASGYTFTDYFMNWVRQAPGQRLEWMGVINPHNGGTSYSQKFQGRVTITVDKSSSTAYMELSSLRSEDTAVYYCARRPLGSDYWGQGTTVTVSS VL: DIVMTQSPSSVSASVGDRVTITCKASQNVGTAVAWYQQKPGKAPKLLIYSASSRYTGVPSRFSGSGSGTDFTLTISSLQPEDFATYYCQQYSSYPLTFGQGTKLEIK | 0.0564 |
| 25B05_H3-L2 (antibody, V domains shown) VH: EVQLVQSGAEVKKPGASVKVSCKASGYTFTDYFMNWVRQAPGQRLEWMGVINPHNGGTSYSQKFQGRVTITVDKSSSTAYMELSSLRSEDTAVYYCARRPLGSDYWGQGTTVTVSS VL: DIVMTQSPSSVSASVGDRVTITCKASQNVGTAVAWYQQKPGKAPKLLIYSASSRYTGVPSRFSGSGSGTDFTLTISSLQPEDFATYYCQQYSSYPLTFGQGTKLEIK | 0.0516 |
| 33D03_par (antibody, V domains shown) VH: EVQLQQSRPVLVKPGASVKMSCKASGYTFTDYYLNWVKQSPGKRLEWIGIINPYNGGTNYNQRFKGKATLTVDKSSSTAYMELNSLTSEDSAVYFCASEGLRTWFTYWGQGTLVTVSA VL: DIVMTQSPSSLSVSAGEKVTMSCKSSQSLSNSGNQKIYLAWYQQKPGQPPKLLIYGASSRESGVPDRFTGSGSEIDFTLTISSVQAEDLAVYYCQNDHSHPFTFGSGTKLEIK | 0.0498 |
| 33D03_H4-L1 (antibody, V domains shown) VH: QVQLVQSGAEVKKPGASVKVSCKASGYTFTDYYLNWVRQAPGQRLEWMGIINPYNGGTNYNQRFKGRVTITVDKSSSTAYMELSSLRSEDTAVYYCASEGLRTWFTYWGQGTLVTVSS VL: DIVMTQSPDSLAVSLGERATINCKSSQSLSNSGNQKIYLAWYQQKPGQPPKLLIYGASSRESGVPDRFSGSGSGTDFTLTISSLQAEDVAVYYCQNDHSHPFTFGQGTKLEIK | 0.0381 |
| 25B05_H1-L3 (antibody, V domains shown) VH: QVQLVQSGAEVKKPGASVKVSCKASGYTFTDYFMNWVRQAPGQRLEWMGVINPHNGGTSYSQKFQGRVTITRDTSASTAYMELSSLRSEDTAVYYCARRPLGSDYWGQGTTVTVSS VL: DIQMTQSPSSVSASVGDRVTITCKASQNVGTAVAWYQQKPGKAPKLLIYSASSRYTEVPDRFSGSGSGTDFTLTISSLQPEDFATYYCQQYSSYPLTFGQGTKLEIK | 0.0335 |
| 33D03_H3-L2 (antibody, V domains shown) VH: QVQLVQSGAEVKKPGASVKVSCKASGYTFTDYYLNWVRQAPGQRLEWMGIINPYNGGTNYSQKFQGRVTITVDKSSSTAYMELSSLRSEDTAVYYCASEGLRTWFTYWGQGTLVTVSS VL: DIVMTQSPDSLAVSLGERATISCKSSQSLSNSGNQKIYLAWYQQKPGQPPKLLIYGASSRESGVPDRFSGSGSGTDFTLTISSLQAEDVAVYYCQNDHSHPFTFGQGTKLEIK | 0.0457 |
| 25B05_H3-L1 (antibody, V domains shown) VH: EVQLVQSGAEVKKPGASVKVSCKASGYTFTDYFMNWVRQAPGQRLEWMGVINPHNGGTSYSQKFQGRVTITVDKSSSTAYMELSSLRSEDTAVYYCARRPLGSDYWGQGTTVTVSS VL: DIQMTQSPSSVSASVGDRVTITCKASQNVGTAVAWYQQKPGKAPKLLIYSASSRYTGVPSRFSGSGSGTDFTLTISSLQPEDFATYYCQQYSSYPLTFGQGTKLEIK | 0.0594 |
| 25B05_H2-L4 (antibody, V domains shown) VH: QVQLVQSGAEVKKPGASVKVSCKASGYTFTDYFMNWVRQAPGQRLEWMGVINPHNGGTSYSQKFQGRVTITVDKSSSTAYMELSSLRSEDTAVYYCARRPLGSDYWGQGTTVTVSS VL: DIVMTQSPSSVSASVGDRVTITCKASQNVGTAVAWYQQKPGKAPKLLIYSASSRYTEVPDRFSGSGSGTDFTLTISSLQPEDFATYYCQQYSSYPLTFGQGTKLEIK | 0.0312 |
| 25B05_H2-L1 (antibody, V domains shown) VH: QVQLVQSGAEVKKPGASVKVSCKASGYTFTDYFMNWVRQAPGQRLEWMGVINPHNGGTSYSQKFQGRVTITVDKSSSTAYMELSSLRSEDTAVYYCARRPLGSDYWGQGTTVTVSS VL: DIQMTQSPSSVSASVGDRVTITCKASQNVGTAVAWYQQKPGKAPKLLIYSASSRYTGVPSRFSGSGSGTDFTLTISSLQPEDFATYYCQQYSSYPLTFGQGTKLEIK | 0.0612 |
